US20200101171A1

Target: IGF-1 receptor (UniProt P08069)
Experiment: SPA competition by the method of Experimental Example 1; text: relative to human native IGF-1; curve did not reach saturation at the highest concentration

UniProt P08069, sequence (P08069 31-1367 limits assumed): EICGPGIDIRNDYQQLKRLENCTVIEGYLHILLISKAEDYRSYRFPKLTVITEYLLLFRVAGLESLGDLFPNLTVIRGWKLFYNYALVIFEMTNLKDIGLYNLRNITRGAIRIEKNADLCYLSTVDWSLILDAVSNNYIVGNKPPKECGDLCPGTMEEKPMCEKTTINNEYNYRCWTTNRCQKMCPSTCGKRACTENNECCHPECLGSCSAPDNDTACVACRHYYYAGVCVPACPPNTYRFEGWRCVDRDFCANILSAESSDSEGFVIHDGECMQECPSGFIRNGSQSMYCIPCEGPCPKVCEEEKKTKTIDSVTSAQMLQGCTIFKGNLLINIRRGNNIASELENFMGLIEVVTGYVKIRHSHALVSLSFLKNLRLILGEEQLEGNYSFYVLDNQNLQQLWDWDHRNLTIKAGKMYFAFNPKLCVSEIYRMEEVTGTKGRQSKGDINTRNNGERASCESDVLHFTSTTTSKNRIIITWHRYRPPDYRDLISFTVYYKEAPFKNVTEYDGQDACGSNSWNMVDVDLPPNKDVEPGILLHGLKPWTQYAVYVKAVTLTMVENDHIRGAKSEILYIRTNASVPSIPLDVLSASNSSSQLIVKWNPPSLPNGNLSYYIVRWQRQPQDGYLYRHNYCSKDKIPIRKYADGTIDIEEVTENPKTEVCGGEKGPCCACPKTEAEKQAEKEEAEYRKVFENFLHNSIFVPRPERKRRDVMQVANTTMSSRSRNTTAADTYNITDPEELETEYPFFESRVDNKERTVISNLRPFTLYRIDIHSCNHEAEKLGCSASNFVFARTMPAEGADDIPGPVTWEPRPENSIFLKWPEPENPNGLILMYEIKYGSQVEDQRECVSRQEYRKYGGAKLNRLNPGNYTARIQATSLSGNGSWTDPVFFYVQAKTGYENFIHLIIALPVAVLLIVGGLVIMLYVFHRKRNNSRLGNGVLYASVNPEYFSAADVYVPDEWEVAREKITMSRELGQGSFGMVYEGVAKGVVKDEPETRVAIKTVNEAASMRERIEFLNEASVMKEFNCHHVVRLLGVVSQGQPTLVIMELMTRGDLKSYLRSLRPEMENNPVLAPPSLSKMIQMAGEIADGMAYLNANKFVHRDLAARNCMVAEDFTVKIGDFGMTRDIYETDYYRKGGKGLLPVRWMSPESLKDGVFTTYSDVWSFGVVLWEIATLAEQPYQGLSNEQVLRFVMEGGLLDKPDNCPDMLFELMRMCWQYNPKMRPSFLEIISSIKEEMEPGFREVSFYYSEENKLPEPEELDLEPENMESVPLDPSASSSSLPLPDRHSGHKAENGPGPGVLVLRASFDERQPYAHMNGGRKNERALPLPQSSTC
native insulin-3.4K PEG-immunoglobulin Fc conjugate, sequence (chain): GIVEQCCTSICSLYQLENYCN
native insulin-3.4K PEG-immunoglobulin Fc conjugate, sequence (chain): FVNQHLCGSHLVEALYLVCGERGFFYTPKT

- Receptor binding affinity (%, SPA method), IGF-1R: < 1%
Substance: native insulin-3.4K PEG-immunoglobulin Fc conjugate
